Measured values from patent US20250228976A1 (BROAD INSTITUTE, published 2025).

What was measured:
[1] = molecular target: T1, human Transferrin Receptor (TFRC) (human, UniProt P02786 1-760); assay: binding of AAV to CHO or hCMEC cells expressing human TFRC, relative to AAV9
T1 construct: whole, on cells; also called hTFRC; huTfR1

marmoset TfR1 = molecular target: T2, marmoset TfR1 (marmoset, UniProt U3FHF5 1-760); assay: qPCR of cell-bound vector genomes, CHO cells stably expressing TfR1, 4 C, 1 h
T2 construct: whole, on cells; also called marmoset TFRC; marTFRC

mouse TfR1 = molecular target: T3, mouse TfR1 (mouse, UniProt Q62351 1-763); assay: as above
T3 construct: whole, on cells; also called mouse TFRC; mouse Tfrc
T3 sequence (Q62351 whole entry): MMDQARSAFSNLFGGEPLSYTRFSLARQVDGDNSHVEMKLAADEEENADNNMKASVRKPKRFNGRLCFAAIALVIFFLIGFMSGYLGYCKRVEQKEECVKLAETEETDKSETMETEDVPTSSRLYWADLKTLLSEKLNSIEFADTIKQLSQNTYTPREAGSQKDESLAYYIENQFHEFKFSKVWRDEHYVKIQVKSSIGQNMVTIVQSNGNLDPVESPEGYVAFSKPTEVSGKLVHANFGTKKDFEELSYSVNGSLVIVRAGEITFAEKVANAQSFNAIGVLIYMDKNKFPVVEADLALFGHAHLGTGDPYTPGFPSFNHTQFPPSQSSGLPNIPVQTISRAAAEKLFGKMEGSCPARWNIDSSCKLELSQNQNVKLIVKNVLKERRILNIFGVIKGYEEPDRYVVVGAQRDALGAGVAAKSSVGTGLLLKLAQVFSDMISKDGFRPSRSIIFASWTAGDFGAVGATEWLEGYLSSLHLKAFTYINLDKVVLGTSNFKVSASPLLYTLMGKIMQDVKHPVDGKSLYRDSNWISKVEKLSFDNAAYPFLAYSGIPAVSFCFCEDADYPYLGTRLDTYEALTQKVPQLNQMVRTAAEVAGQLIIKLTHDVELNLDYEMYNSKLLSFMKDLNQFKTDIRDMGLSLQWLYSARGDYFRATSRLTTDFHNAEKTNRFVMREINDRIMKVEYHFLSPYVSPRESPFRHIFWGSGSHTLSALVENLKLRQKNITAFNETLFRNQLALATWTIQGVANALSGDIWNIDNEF

macaque TfR1 = molecular target: T4, macaque TfR1 (rhesus macaque, UniProt I0FKY7 1-760); assay: as above
T4 construct: whole, on cells; also called macTfR1; rhesus macaque TFRC

[2] = molecular target: T1, human Transferrin Receptor (TFRC); assay: legend of the 2-step in vivo transduction assay (human TFRC expressed in mouse brain endothelium)

T1 sequence (P02786 whole entry): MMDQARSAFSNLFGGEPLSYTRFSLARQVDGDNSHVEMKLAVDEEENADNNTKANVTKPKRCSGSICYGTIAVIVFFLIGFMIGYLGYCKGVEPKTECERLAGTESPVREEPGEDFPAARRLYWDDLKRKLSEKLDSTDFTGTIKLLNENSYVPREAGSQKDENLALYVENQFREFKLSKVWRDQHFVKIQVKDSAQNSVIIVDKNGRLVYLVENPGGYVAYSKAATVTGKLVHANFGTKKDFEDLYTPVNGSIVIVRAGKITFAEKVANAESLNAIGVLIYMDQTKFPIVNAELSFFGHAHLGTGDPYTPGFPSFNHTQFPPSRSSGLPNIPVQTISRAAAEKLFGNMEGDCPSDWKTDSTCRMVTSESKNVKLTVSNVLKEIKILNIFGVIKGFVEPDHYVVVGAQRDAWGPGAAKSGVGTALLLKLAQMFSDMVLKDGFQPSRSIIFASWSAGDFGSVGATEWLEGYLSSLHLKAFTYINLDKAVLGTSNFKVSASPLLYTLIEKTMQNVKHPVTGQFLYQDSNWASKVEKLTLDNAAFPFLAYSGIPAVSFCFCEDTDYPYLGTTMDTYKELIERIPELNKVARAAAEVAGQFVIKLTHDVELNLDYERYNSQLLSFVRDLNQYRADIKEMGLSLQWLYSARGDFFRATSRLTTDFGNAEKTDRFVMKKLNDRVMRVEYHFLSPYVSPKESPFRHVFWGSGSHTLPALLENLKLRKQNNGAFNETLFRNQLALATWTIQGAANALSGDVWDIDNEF

Binder	binding result [1]	binding result (marmoset TfR1)	binding result (mouse TfR1)	binding result (macaque TfR1)	binding result [2]
AAV-BI98 (other, Engineered AAV capsid tested as assembled virus particles; entry is full VP1; also called AAV-B198) MAADGYLPDWLEDNLSEGIREWWALKPGAPQPKANQQHQDNARGLVLPGYKYLGPGNGLDKGEPVNAADAAALEHDKAYDQQLKAGDNPYLKYNHADAEFQERLKEDTSFGGNLGRAVFQAKKRLLEPLGLVEEAAKTAPGKKRPVEQSPQEPDSSAGIGKSGAQPAKKRLNFGQTGDTESVPDPQPIGEPPAAPSGVGSLTMASGGGAPVADNNEGADGVGSSSGNWHCDSQWLGDRVITTSTRTWALPTYNNHLYKQISNSTSGGSSNDNAYFGYSTPWGYFDFNRFHCHFSPRDWQRLINNNWGFRPKRLNFKLFNIQVKEVTDNNGVKTIANNLTSTVQVFTDSDYQLPYVLGSAHEGCLPPFPADVFMIPQYGYLTLNDGSQAVGRSSFYCLEYFPSQMLRTGNNFQFSYEFENVPFHSSYAHSQSLDRLMNPLIDQYLYYLSRTINGSGQNQQTLKFSVAGPSNMAVQGRNYIPGPSYRQQRVSTTVTQNNNSEFAWPGASSWALNGRNSLMNPGPAMASHKEGEDRFFPLSGSLIFGKQGTGRDNVDADKVMITNEEEIKTTNPVATESYGQVATNHQSAQYSRLNMNAQAQTGWVQNQGILPGMVWQDRDVYLQGPIWAKIPHTDGNFHPSPLMGGFGMKHPPPQILIKNTPVPADPPTAFNKDKLNSFITQYSTGQVSVEIEWELQKENSKRWNPEIQYTSNYYKSNNVEFAVNTEGVYSEPRPIGTRYLTRNL	binds	no binding (tested: 3,000 vg/cell)	no binding (tested: 3,000 vg/cell)	no binding (tested: 3,000 vg/cell)	
AAV-BI101 (other, Engineered AAV capsid tested as assembled virus particles; entry is full VP1) MAADGYLPDWLEDNLSEGIREWWALKPGAPQPKANQQHQDNARGLVLPGYKYLGPGNGLDKGEPVNAADAAALEHDKAYDQQLKAGDNPYLKYNHADAEFQERLKEDTSFGGNLGRAVFQAKKRLLEPLGLVEEAAKTAPGKKRPVEQSPQEPDSSAGIGKSGAQPAKKRLNFGQTGDTESVPDPQPIGEPPAAPSGVGSLTMASGGGAPVADNNEGADGVGSSSGNWHCDSQWLGDRVITTSTRTWALPTYNNHLYKQISNSTSGGSSNDNAYFGYSTPWGYFDFNRFHCHFSPRDWQRLINNNWGFRPKRLNFKLFNIQVKEVTDNNGVKTIANNLTSTVQVFTDSDYQLPYVLGSAHEGCLPPFPADVFMIPQYGYLTLNDGSQAVGRSSFYCLEYFPSQMLRTGNNFQFSYEFENVPFHSSYAHSQSLDRLMNPLIDQYLYYLSRTINGSGQNQQTLKFSVAGPSNMAVQGRNYIPGPSYRQQRVSTTVTQNNNSEFAWPGASSWALNGRNSLMNPGPAMASHKEGEDRFFPLSGSLIFGKQGTGRDNVDADKVMITNEEEIKTTNPVATESYGQVATNHQSAQYHRLSNNAQAQTGWVQNQGILPGMVWQDRDVYLQGPIWAKIPHTDGNFHPSPLMGGFGMKHPPPQILIKNTPVPADPPTAFNKDKLNSFITQYSTGQVSVEIEWELQKENSKRWNPEIQYTSNYYKSNNVEFAVNTEGVYSEPRPIGTRYLTRNL	binds	no binding (tested: 3,000 vg/cell)	no binding (tested: 3,000 vg/cell)	no binding (tested: 3,000 vg/cell)	
AAV-BI19 (other, Engineered AAV capsid, tested as assembled genome-packaging virus particles; VP2 and VP3 come from the same cap gene) MAADGYLPDWLEDNLSEGIREWWALKPGAPQPKANQQHQDNARGLVLPGYKYLGPGNGLDKGEPVNAADAAALEHDKAYDQQLKAGDNPYLKYNHADAEFQERLKEDTSFGGNLGRAVFQAKKRLLEPLGLVEEAAKTAPGKKRPVEQSPQEPDSSAGIGKSGAQPAKKRLNFGQTGDTESVPDPQPIGEPPAAPSGVGSLTMASGGGAPVADNNEGADGVGSSSGNWHCDSQWLGDRVITTSTRTWALPTYNNHLYKQISNSTSGGSSNDNAYFGYSTPWGYFDFNRFHCHFSPRDWQRLINNNWGFRPKRLNFKLFNIQVKEVTDNNGVKTIANNLTSTVQVFTDSDYQLPYVLGSAHEGCLPPFPADVFMIPQYGYLTLNDGSQAVGRSSFYCLEYFPSQMLRTGNNFQFSYEFENVPFHSSYAHSQSLDRLMNPLIDQYLYYLSRTINGSGQNQQTLKFSVAGPSNMAVQGRNYIPGPSYRQQRVSTTVTQNNNSEFAWPGASSWALNGRNSLMNPGPAMASHKEGEDRFFPLSGSLIFGKQGTGRDNVDADKVMITNEEEIKTTNPVATESYGQVATNHQSAQYSRIGPNAQAQTGWVQNQGILPGMVWQDRDVYLQGPIWAKIPHTDGNFHPSPLMGGFGMKHPPPQILIKNTPVPADPPTAFNKDKLNSFITQYSTGQVSVEIEWELQKENSKRWNPEIQYTSNYYKSNNVEFAVNTEGVYSEPRPIGTRYLTRNL		no binding (tested: 3,000 vg/cell)	no binding (tested: 3,000 vg/cell)	no binding (tested: 3,000 vg/cell)	binds
AAV-BI100 (other, Engineered AAV capsid tested as assembled virus particles; entry is full VP1) MAADGYLPDWLEDNLSEGIREWWALKPGAPQPKANQQHQDNARGLVLPGYKYLGPGNGLDKGEPVNAADAAALEHDKAYDQQLKAGDNPYLKYNHADAEFQERLKEDTSFGGNLGRAVFQAKKRLLEPLGLVEEAAKTAPGKKRPVEQSPQEPDSSAGIGKSGAQPAKKRLNFGQTGDTESVPDPQPIGEPPAAPSGVGSLTMASGGGAPVADNNEGADGVGSSSGNWHCDSQWLGDRVITTSTRTWALPTYNNHLYKQISNSTSGGSSNDNAYFGYSTPWGYFDFNRFHCHFSPRDWQRLINNNWGFRPKRLNFKLFNIQVKEVTDNNGVKTIANNLTSTVQVFTDSDYQLPYVLGSAHEGCLPPFPADVFMIPQYGYLTLNDGSQAVGRSSFYCLEYFPSQMLRTGNNFQFSYEFENVPFHSSYAHSQSLDRLMNPLIDQYLYYLSRTINGSGQNQQTLKFSVAGPSNMAVQGRNYIPGPSYRQQRVSTTVTQNNNSEFAWPGASSWALNGRNSLMNPGPAMASHKEGEDRFFPLSGSLIFGKQGTGRDNVDADKVMITNEEEIKTTNPVATESYGQVATNHQSAQVHRLQDKAQAQTGWVQNQGILPGMVWQDRDVYLQGPIWAKIPHTDGNFHPSPLMGGFGMKHPPPQILIKNTPVPADPPTAFNKDKLNSFITQYSTGQVSVEIEWELQKENSKRWNPEIQYTSNYYKSNNVEFAVNTEGVYSEPRPIGTRYLTRNL	binds				
AAV-BI99 (other, Engineered AAV capsid tested as assembled virus particles; entry is full VP1) MAADGYLPDWLEDNLSEGIREWWALKPGAPQPKANQQHQDNARGLVLPGYKYLGPGNGLDKGEPVNAADAAALEHDKAYDQQLKAGDNPYLKYNHADAEFQERLKEDTSFGGNLGRAVFQAKKRLLEPLGLVEEAAKTAPGKKRPVEQSPQEPDSSAGIGKSGAQPAKKRLNFGQTGDTESVPDPQPIGEPPAAPSGVGSLTMASGGGAPVADNNEGADGVGSSSGNWHCDSQWLGDRVITTSTRTWALPTYNNHLYKQISNSTSGGSSNDNAYFGYSTPWGYFDFNRFHCHFSPRDWQRLINNNWGFRPKRLNFKLFNIQVKEVTDNNGVKTIANNLTSTVQVFTDSDYQLPYVLGSAHEGCLPPFPADVFMIPQYGYLTLNDGSQAVGRSSFYCLEYFPSQMLRTGNNFQFSYEFENVPFHSSYAHSQSLDRLMNPLIDQYLYYLSRTINGSGQNQQTLKFSVAGPSNMAVQGRNYIPGPSYRQQRVSTTVTQNNNSEFAWPGASSWALNGRNSLMNPGPAMASHKEGEDRFFPLSGSLIFGKQGTGRDNVDADKVMITNEEEIKTTNPVATESYGQVATNHQSAQYSRLNKDAQAQTGWVQNQGILPGMVWQDRDVYLQGPIWAKIPHTDGNFHPSPLMGGFGMKHPPPQILIKNTPVPADPPTAFNKDKLNSFITQYSTGQVSVEIEWELQKENSKRWNPEIQYTSNYYKSNNVEFAVNTEGVYSEPRPIGTRYLTRNL	binds	no binding (tested: 3,000 vg/cell)	no binding (tested: 3,000 vg/cell)	no binding (tested: 3,000 vg/cell)	
AAV-BI102 (other, Engineered AAV capsid tested as assembled virus particles; entry is full VP1) MAADGYLPDWLEDNLSEGIREWWALKPGAPQPKANQQHQDNARGLVLPGYKYLGPGNGLDKGEPVNAADAAALEHDKAYDQQLKAGDNPYLKYNHADAEFQERLKEDTSFGGNLGRAVFQAKKRLLEPLGLVEEAAKTAPGKKRPVEQSPQEPDSSAGIGKSGAQPAKKRLNFGQTGDTESVPDPQPIGEPPAAPSGVGSLTMASGGGAPVADNNEGADGVGSSSGNWHCDSQWLGDRVITTSTRTWALPTYNNHLYKQISNSTSGGSSNDNAYFGYSTPWGYFDFNRFHCHFSPRDWQRLINNNWGFRPKRLNFKLFNIQVKEVTDNNGVKTIANNLTSTVQVFTDSDYQLPYVLGSAHEGCLPPFPADVFMIPQYGYLTLNDGSQAVGRSSFYCLEYFPSQMLRTGNNFQFSYEFENVPFHSSYAHSQSLDRLMNPLIDQYLYYLSRTINGSGQNQQTLKFSVAGPSNMAVQGRNYIPGPSYRQQRVSTTVTQNNNSEFAWPGASSWALNGRNSLMNPGPAMASHKEGEDRFFPLSGSLIFGKQGTGRDNVDADKVMITNEEEIKTTNPVATESYGQVATNHQSAQLHALSHNAQAQTGWVQNQGILPGMVWQDRDVYLQGPIWAKIPHTDGNFHPSPLMGGFGMKHPPPQILIKNTPVPADPPTAFNKDKLNSFITQYSTGQVSVEIEWELQKENSKRWNPEIQYTSNYYKSNNVEFAVNTEGVYSEPRPIGTRYLTRNL	binds				
